T1: miR2-FL-WT-T7 (mouse iRhom2 full length wild type C-terminally tagged with 3 consecutive copies of the T7 … (mouse, UniProt Q80WQ6 1-827))
T1 construct: also called mouse iRhom2 variant expressed by MEF-DKO-miR2-FL-WT-T7 cells
T1 sequence: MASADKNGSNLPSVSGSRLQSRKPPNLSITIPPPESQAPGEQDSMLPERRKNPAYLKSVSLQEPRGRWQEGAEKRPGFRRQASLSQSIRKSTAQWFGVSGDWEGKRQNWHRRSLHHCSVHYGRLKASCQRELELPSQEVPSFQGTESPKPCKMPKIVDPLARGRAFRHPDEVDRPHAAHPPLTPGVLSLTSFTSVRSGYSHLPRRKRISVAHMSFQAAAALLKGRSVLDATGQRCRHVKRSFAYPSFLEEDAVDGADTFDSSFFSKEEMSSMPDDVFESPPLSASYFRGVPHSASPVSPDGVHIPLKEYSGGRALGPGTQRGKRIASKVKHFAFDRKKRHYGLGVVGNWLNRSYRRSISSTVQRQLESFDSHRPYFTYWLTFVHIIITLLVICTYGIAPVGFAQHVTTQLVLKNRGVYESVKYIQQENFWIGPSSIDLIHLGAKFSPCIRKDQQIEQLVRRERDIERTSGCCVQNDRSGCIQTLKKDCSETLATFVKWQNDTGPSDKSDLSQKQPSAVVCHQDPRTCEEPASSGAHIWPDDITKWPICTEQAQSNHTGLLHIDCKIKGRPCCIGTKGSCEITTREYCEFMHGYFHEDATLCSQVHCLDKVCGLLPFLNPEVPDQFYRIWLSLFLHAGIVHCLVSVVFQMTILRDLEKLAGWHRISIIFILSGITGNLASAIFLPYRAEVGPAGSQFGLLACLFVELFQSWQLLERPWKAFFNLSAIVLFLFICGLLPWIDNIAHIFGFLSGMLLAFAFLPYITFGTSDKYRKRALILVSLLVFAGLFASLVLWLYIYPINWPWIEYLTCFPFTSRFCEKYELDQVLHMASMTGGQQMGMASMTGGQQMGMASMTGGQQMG

T2: human iRhom2 (inactive rhomboid protein 2, isoform 1), endogenously expressed on human cells (human, UniProt Q6PJF5 1-856)
T2 construct: also called RHBDF2; NP_078875.4
T2 sequence: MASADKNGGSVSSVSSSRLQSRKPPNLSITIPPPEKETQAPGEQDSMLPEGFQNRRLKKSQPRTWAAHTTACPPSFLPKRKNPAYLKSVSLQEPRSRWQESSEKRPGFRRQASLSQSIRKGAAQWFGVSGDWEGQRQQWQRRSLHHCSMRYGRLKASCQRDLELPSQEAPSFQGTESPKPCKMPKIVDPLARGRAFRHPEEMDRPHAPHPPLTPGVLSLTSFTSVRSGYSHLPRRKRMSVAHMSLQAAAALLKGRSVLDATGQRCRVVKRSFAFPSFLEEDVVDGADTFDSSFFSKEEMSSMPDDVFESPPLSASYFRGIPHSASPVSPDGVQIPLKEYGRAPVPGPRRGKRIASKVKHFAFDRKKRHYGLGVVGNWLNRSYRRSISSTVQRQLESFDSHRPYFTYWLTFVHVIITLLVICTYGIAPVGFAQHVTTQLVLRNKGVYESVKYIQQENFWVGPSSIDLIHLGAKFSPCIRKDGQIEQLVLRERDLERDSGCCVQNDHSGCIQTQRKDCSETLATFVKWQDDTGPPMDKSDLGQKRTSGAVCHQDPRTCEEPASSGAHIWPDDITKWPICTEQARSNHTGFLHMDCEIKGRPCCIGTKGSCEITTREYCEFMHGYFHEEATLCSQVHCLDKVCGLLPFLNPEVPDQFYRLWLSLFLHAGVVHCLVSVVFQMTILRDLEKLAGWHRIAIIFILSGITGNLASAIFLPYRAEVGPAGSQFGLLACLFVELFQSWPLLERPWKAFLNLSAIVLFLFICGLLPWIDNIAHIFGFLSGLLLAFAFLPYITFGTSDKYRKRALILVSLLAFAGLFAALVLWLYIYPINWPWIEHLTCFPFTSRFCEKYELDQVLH


Columns and labels:
[1] = target: T1, miR2-FL-WT-T7 (mouse iRhom2 full length …); assay: FACS on cells of the row mouse iR2 wild type
[2] = target: T2, human iRhom2 (inactive rhomboid protein …); assay: indirect FACS scatchard analysis on THP-1 cells (endogenous iRhom2)
Experimental: In brief, human THP-1 cells (American Type Culture Collection, USA) were harvested with 10 mM EDTA in PBS, washed and resuspended in FACS buffer (PBS, 3% FBS, 0.05% sodium azide), and seeded in Nunc U-bottom 96-well plates (Thermo Fisher Scientific, USA) at approximately 3×10⁵ cells per well. In order to pellet cells and remove supernatants, the plates were centrifuged at 1,500 rpm and 4° C. for 3 minutes. For primary staining, cells were resuspended in 100 μl per well of either FACS buffer alone (controls) or serial two-fold dilutions (in total 22 concentrations) of the purified antibodies 3, 5, 16, 22, 34, 42, 43, 44, 48, and 50 of the present disclosure in FACS buffer starting at 40 μg/ml and incubated on ice for 1 hour. Afterwards, plates were centrifuged at 1,500 rpm and 4° C. for 3 minutes and washed twice with 200 μl per well of FACS buffer. For secondary staining, cells were spun down and resuspended in 100 μl per well of PE-conjugated goat anti-mouse IgG F(ab′)2 detection fragment (Dianova, Germany) diluted 1:100 in FACS buffer. Protected from light, the cell suspensions were incubated on ice for 1 hour. Plates were then centrifuged at 1,500 rpm and 4° C. for 3 minutes and washed three times with 200 μl per well of FACS buffer. Finally, cells were resuspended in 150 μl per well of FACS buffer and analyzed using a BD Accuri™ C6 Plus flow cytometer (Becton Dickinson, Germany). Applying Prism8 software (GraphPad Sowtware, USA), the respective KD value for each of the antibodies of the present disclosure were calculated.

mouse iR1 wild type = target: T3, mouse iR1 wild type (mouse); assay: FACS on cells expressing mouse iR1 wild type, vs human iR2 wild type = 100%
T3 construct: wild type; also called mouse iRhom1 wild type; miR1-FL WT
T3 sequence (Q6PIX5 whole entry): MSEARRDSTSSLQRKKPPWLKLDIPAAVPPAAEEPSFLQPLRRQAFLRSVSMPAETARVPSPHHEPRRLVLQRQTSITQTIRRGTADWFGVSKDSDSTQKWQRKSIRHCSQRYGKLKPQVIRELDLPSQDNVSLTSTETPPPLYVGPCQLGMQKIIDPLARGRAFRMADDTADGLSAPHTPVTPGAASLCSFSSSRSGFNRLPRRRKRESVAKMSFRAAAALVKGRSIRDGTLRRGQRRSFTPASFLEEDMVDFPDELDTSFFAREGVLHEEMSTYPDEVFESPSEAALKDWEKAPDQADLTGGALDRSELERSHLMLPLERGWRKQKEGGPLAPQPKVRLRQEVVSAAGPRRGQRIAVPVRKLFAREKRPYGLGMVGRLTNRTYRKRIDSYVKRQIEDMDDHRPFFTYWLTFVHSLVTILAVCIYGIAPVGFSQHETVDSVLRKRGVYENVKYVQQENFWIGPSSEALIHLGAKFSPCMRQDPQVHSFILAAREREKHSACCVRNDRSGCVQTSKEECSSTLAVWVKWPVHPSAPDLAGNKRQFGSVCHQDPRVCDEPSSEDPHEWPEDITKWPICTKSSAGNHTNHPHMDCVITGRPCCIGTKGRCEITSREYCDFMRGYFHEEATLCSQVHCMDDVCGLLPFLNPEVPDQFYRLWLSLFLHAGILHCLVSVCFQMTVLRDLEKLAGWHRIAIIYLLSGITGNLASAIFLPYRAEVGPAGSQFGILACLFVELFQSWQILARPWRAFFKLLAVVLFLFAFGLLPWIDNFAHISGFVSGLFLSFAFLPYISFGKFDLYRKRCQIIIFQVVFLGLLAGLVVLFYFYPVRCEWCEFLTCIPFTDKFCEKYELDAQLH

Binder	binding result [1]	Kd [2] [nM]	grade of loss of binding vs wild type (mouse iR1 wild type)
antibody 43 (antibody, V domains shown, Mouse IgG, kappa light chain; also called clone #43) VH: QVALKESGPGILQPSQTLSLTCSFSGFSLSTFGMGVGWIRQSSGKGLEWLANIWWDDDKYYNPALKSRLTISKDASKNQAFLKIANVDTADTATYYCARIGNYGSNYWYFDVWGTGTTVTVSS VL: QIVLTQSPAIMSASPGERVTMTCSANSRISYMYWYQQKPGSSPRLLIYDTSNLASGVPVRFSGSGSGTSYSLTISRMEAEDAATYNCQQWSSYPLTFGAGTKLELK	no binding (tested: 3 µg/ml)	4.55	3 grade (3 => 95% loss of binding vs wild type)
antibody 44 (antibody, V domains shown, Mouse IgG, kappa light chain; also called clone #44; m44) VH: QVTLKESGPGILQPSQTLSLTCSFSGFSLSTFGMGVGWIRQPSEKGLEWLAHIWWDDDKYYNPALKSRLTISKDTSKNQIFLKITNVDTAETATYYCSRIGNYGSNYWYFDVWGTGTTVTVSS VL: QIVLTQSPAVMSASPGEKVTMTCTASSSVYYMYWYQQTPGSSPRLLIYDTSNLASGVPVRFSGSGSGTSYSLTISRMEAEDAATYYCQQWNTYPLTFGAGTKLELK	no binding (tested: 3 µg/ml)	0.44	3 grade (3 => 95% loss of binding vs wild type)
antibody 16 (antibody, V domains shown, Mouse IgG, kappa light chain; also called clone #16; m16) VH: QVTLKESGPGILQPSQTLSLTCSFSGFSLSTFALGVGWIRQPSGRGLEWLAHIWWDDDKYYNPALKSRLTISKDTSKNHVFLKIANVDTADTATYYCARITTYYYGMDYWGQGTSVTVSS VL: DIVLSQSPATLSVTPGDSVSLFCRASQSIGNHLHWYQQESHASPRLLIKYASQSISGIPSRFSGSGSGTDFTLSINSVETEDFGMYFCQQSYNWPLTFGAGTKLELK	no binding (tested: 3 µg/ml)	0.34	3 grade (3 => 95% loss of binding vs wild type)
antibody 5 (antibody, V domains shown, Mouse IgG, kappa light chain; also called clone #5; purified antibody 5) VH: QVTLKESGPGILQPSQTLSLTCSFSGFSLSTFGMGVGWIRQPSGKGLEWLAHIWWDDEKYYNSALKSRLTISKATSKNQAFLKIANVDTADTATYYCARISNYGSNYWYFNVWGTGTTVTVSS VL: QVVLTQSPALMSASPGEKVTMTCSAGSSVSCMYWYQQKPGSSPRVLIYDTSNLASGVPARFTGSGSGTSYSLTISRMEAEDAASYYCQQWNSYPLTFGAGTKLELK	no binding (tested: 3 µg/ml)	3.35	3 grade (3 => 95% loss of binding vs wild type)
antibody 22 (antibody, V domains shown, Mouse IgG, kappa light chain; also called clone #22; m22) VH: QVTLKESGPGILQPSQTLSLTCSFSGFSLSTFGMGVGWIRQPSGKGLEWLAHIWWDDEKYYNSALKSRLTISKATSKNQVFLKIANVDTADTATYYCARISNYGSNYWYFNVWGTGTTVTVSS VL: QVVLTQSPALMSASPGEKVTMTCSAGSSVSYMYWYQQKPGSSPRVLIYDTSNLASGVPARFTGSGSGTSYSLTISRMEAEDAATYYCQQWNSYPLTFGAGTKLELK	no binding (tested: 3 µg/ml)	2.04	3 grade (3 => 95% loss of binding vs wild type)
antibody 42 (antibody, V domains shown, Mouse IgG, kappa light chain; also called clone #42; m42) VH: QVTLKESGPGILQPSQTLSLTCSLSGFSLSTFGRGVGWIRQPSGKGLEWLAHIWWDDEKYYNPALKSRLTISKDTSKNQVFLRIANVDTADTATYYCARIQNYGSNYWYFDVWGTGTTVTVSS VL: LIVLTQSPAIMSASPGEKVTMTCGATSRISYMFWYQQKPGSSPRVLIYDTSNLASGVPVRFSGSGSGTSYSLTISRVEAEDVATYYCQQWNSYPLTFGAGTKLELK	no binding (tested: 3 µg/ml)	1.9	3 grade (3 => 95% loss of binding vs wild type)
antibody 3 (antibody, V domains shown, Mouse IgG, kappa light chain; also called clone #3; purified antibody 3) VH: QVTLKESGPGILQPSQTLSLTCSFSGFSLTTFAMGIGWVRQPSGKGLEWLAHIWWDGEKYNNPVLKSRLTISKDTSKNQVFLRIANVDTPDTATYYCARISSIYYIIDNWGQGTSVTVSS VL: DIVLTQSPATLSVTPGHSVSLSCRASQSISNNLHWYQKKSHESPRLLIKYVSQSISGIPSRFSGSGSGTDFTLSINSVETEDFGMYFCQQSYNWPLTFGAGTKLELK	–	2.97	3 grade (3 => 95% loss of binding vs wild type)
antibody 34 (antibody, V domains shown, Mouse IgG, kappa light chain; also called clone #34; m34) VH: QVTLKESGPGILQPSQTLSLTCSFSGFSLSTFSLGVGWIRQSSGKGLEWLAHIWWDDEKYYNPALKSRLTISKDTSKNQVFLKIANVDAADTATYYCARAYYSKSYYALDYWGQGTSVTVSS VL: DIQMTQSPSSLSASLGERVSLTCRASQEISGYLSWLQQKPDGTIKRLIYAASTLDSGVPKRFSGSRSGSDYSLAISSLESEDFADYYCLQYANFPFTFGSGTKLEIK	no binding (tested: 3 µg/ml)	1.94	3 grade (3 => 95% loss of binding vs wild type)
antibody 48 (antibody, V domains shown, Mouse IgG, kappa light chain; also called clone #48; purified antibody 48) VH: QVQLQQSGTELVRPGTSVKVSCKASGYAFTNYLIEWVKQRPGQGLEWIGVINPGSGFTKYNEKFKGKATLTADKSSSTVYMHLSSLTSEDSAVYFCARGLYRAMDYWGQGTSVTVSS VL: DIQMTQSPASQSASLGESVTITCLASQTIATWLAWYQQKPGKSPQLLIYGATTLADGVPSRFSGGGSGTKFSFKISSLQAEDFVSYYCQQLYSTPYTFGGGTKLEIK	–	1.73	–
antibody 50 (antibody, V domains shown, Mouse IgG, kappa light chain; also called clone #50; purified antibody 50) VH: QVQLQQSGAELVRPGASVKVSCKASGYAFSNYLIEWVKQRPGQGLEWIGVINPGSGFTKYNEKFKGKATLTADKSSSTAYMQLSSLTSEDSAVYFCARGLYRAMDYWGQGTSVTVSS VL: DIQMTQSPASQSASLGESVTITCLASQTIGTWLAWYQQKPGKSPQLLIYAAASLADGVPSRFSGGGSGTKFSFKISSLQAEDFVNYYCQQIYSTPYTFGGGTKLEIK	no binding (tested: 3 µg/ml)	1.43	3 grade (3 => 95% loss of binding vs wild type)

Source: patent US20240174744A1 (SCIRHOM, published 2024)
